Assays:
gdir_arath GDI1 [1] = biological target: gdir_arath GDI1 (UniProt Q9SFC6)
gdir_arath GDI1 [2] = biological target: gdir_arath GDI1 (UniProt Q9SFC6); remark: listed apart in the source

Sequence of gdir_arath GDI1 (Q9SFC6 whole entry): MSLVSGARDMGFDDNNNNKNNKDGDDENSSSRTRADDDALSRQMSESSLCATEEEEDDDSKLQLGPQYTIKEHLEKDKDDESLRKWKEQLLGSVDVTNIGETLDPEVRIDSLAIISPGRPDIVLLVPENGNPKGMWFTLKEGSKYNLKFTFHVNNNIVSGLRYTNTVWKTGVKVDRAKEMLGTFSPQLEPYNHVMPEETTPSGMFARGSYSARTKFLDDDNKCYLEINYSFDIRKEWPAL
Sequence of Rac-like GTP-binding protein ARAC3 (Arabidopsis thaliana (Mouse-ear cress)), Q38912 T20N (Q38912 whole entry T20N): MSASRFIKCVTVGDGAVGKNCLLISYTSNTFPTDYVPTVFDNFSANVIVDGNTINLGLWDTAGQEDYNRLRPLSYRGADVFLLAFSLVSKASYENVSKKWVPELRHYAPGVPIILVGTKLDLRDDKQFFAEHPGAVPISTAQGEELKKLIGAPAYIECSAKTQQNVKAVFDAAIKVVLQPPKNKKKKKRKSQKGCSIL
Sequence of Rac-like GTP-binding protein ARAC5 (Arabidopsis thaliana (Mouse-ear cress)), Q38937 T20N (Q38937 whole entry T20N): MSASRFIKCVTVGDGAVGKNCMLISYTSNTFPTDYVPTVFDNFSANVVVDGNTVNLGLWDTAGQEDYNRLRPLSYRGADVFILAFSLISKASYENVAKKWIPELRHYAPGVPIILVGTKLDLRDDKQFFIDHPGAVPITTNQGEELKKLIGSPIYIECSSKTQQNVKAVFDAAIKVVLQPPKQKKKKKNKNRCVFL

| Substance | effect of a mutation on the interaction (gdir_arath GDI1 [1]) | effect of a mutation on the interaction (gdir_arath GDI1 [2]) |
| --- | --- | --- |
| Rac-like GTP-binding protein ARAC3 (Arabidopsis thaliana (Mouse-ear cress)), Q38912 T20N | disrupting interaction |  |
| Rac-like GTP-binding protein ARAC5 (Arabidopsis thaliana (Mouse-ear cress)), Q38937 T20N |  | disrupting interaction |

Reference: IntAct's records for PubMed 10798620
